In publication PMC6978714 (2019) one finds Kd data, which are given here for 4 molecules.

No end group written: not given here.

The term Kd denotes the concentration at which binding is half-saturated.

This experiment deals with recombinant HLA-DRB1*01:01 protein (HLA-DR α chain with DRB1*01:01 β chain) (human).

B1: chemically synthesized biotinylated peptide MBP 81-104 (peptide)
peptide: TQDENPVVHFFKNIVTPRTPPPSQ
modifications: also: biotinylated, position not given here
Take B1: the Kd amounted to 22 nM.

B2: chemically synthesized biotinylated peptide MBP 146-170 (peptide)
peptide: DAQGTLSKIFKLGGRDSRSGSPMAR
modifications: also: biotinylated, position not given here
As to B2, the Kd worked out at 52 nM.

B3: thioredoxin-fused MBP 146-170 (MBP epitope library), biotinylated (peptide)
chain: DAQGTLSKIFKLGGRDSRSGSPMAR
modifications: not fully specified; also: thioredoxin-fused, end not given here, biotinylated chemically (EZ-Link Sulfo-NHS-LC-biotin, 1:20), position not given here
Turning to B3, the Kd stood at 101 nM.

B4: thioredoxin-fused MBP 81-104 (MBP epitope library), biotinylated (peptide)
chain: TQDENPVVHFFKNIVTPRTPPPSQ
modifications: not fully specified; also: thioredoxin-fused, end not given here, biotinylated chemically (EZ-Link Sulfo-NHS-LC-biotin, 1:20), position not given here
Turning to B4, the dissociation constant Kd was determined as 103 nM.
